According to US20030236190A1 (published 2003):
Non-standard residues stand in square brackets, D forms with d. No end group written: not given here. Hyp = O=C(O)[C@@H]1C[C@@H](O)CN1

B1: S333 (peptide)
peptide 1: XGSLDESFYDWFERQLGKK
peptide 2: XGSLDESFYDWFERQLGKK
modifications: N-terminal Lig′ coupled to linker 22
notes: dimer, N-N
B2: S378 (peptide)
peptide 1: GSLDESFYDWFERQLGKKKX
peptide 2: GSLDESFYDWFERQLGKKKX
modifications: C-terminal Lys carrying Ald coupled to linker 17
notes: dimer, C-C
B3: S335 (peptide)
peptide 1: GSLDESFYDWFERQLGKKX
peptide 2: GSLDESFYDWFERQLGKKX
modifications: not fully specified; C-terminal Lig coupled to linker 22
notes: dimer, C-C
B4: S334 (peptide)
peptide 1: XGGGFHENFYDWFVRQVSKK
peptide 2: XGGGFHENFYDWFVRQVSKK
modifications: N-terminal Lig′ coupled to linker 22
notes: dimer, N-N
B5: S379 (peptide)
peptide 1: GSLDESFYDWFERQLGKKKX
peptide 2: GSLDESFYDWFERQLGKKKX
modifications: C-terminal Lys carrying Ald coupled to linker 19
notes: dimer, C-C
B6: S350 (peptide)
peptide 1: GSLDESFYDWFERQLGKKX
peptide 2: GSLDESFYDWFERQLGKKX
modifications: not fully specified; C-terminal Lig coupled to linker 21
notes: dimer, C-C
B7: S352 (peptide)
peptide 1: XGGGFHENFYDWFVRQVSKK
peptide 2: XGGGFHENFYDWFVRQVSKK
modifications: N-terminal Lig′ coupled to linker 21
notes: dimer, N-N
B8: S376 (peptide)
peptide 1: XGSLDESFYDWFERQLGKK
peptide 2: XGSLDESFYDWFERQLGKK
modifications: N-terminal Ald coupled to linker 19
notes: dimer, N-N
B9: S329 (peptide)
peptide 1: XFHENFYDWFVRQVSKK
peptide 2: XFHENFYDWFVRQVSKK
modifications: N-terminal Lig′ coupled to linker 17
notes: dimer, N-N
B10: S359 (peptide)
peptide 1: XDWLQRNANFYDWFVAEL
peptide 2: XDWLQRNANFYDWFVAEL
modifications: N-terminal Lig′ coupled to linker 9
notes: dimer, N-N
B11: S325 (peptide)
peptide 1: XGSLDESFYDWFERQLGKK
peptide 2: XGSLDESFYDWFERQLGKK
modifications: N-terminal Lig′ coupled to linker 9
notes: dimer, N-N
B12: S362 (peptide)
peptide 1: XGSLDESFYDWFERQLGKK
peptide 2: XGSLDESFYDWFERQLGKK
modifications: N-terminal Lig′ coupled to linker 24
notes: dimer, N-N
B13: S360 (peptide)
peptide 1: XDWLQRNANFYDWFVAEL
peptide 2: XDWLQRNANFYDWFVAEL
modifications: N-terminal Lig′ coupled to linker 23
notes: dimer, N-N
B14: S381 (peptide)
peptide 1: EEDWLQRNANFYDWFVAELX
peptide 2: EEDWLQRNANFYDWFVAELX
modifications: C-terminal Lig′ coupled to linker 23
notes: dimer, C-C
B15: S374 (peptide)
peptide 1: XGSLDESFYDWFERQLGKK
peptide 2: XGSLDESFYDWFERQLGKK
modifications: not fully specified; N-terminal Ald (aldehyde from periodate oxidation of serine) coupled to linker 17
notes: dimer, N-N
B16: S361 (peptide)
peptide 1: GSLDESFYDWFERQLGKKX
peptide 2: GSLDESFYDWFERQLGKKX
modifications: C-terminal Lig′ coupled to linker 24
notes: dimer, C-C
B17: S354 (peptide)
peptide 1: XGSLDESFYDWFERQLGKK
peptide 2: XGSLDESFYDWFERQLGKK
modifications: N-terminal Lig′ coupled to linker 14
notes: dimer, N-N
B18: S437 (peptide)
peptide 1: ESFYDWFERQLGGGGK
peptide 2: LDQEWAWVQCEVYGRGCPS
modifications: not fully specified (bridges); cysteine pairing not given here; also: K16 of chain 1 chemically linked to C-terminus of chain 2 (C-C on a lysine)
B19: S439 (peptide)
peptide 1: ESFYDWFERQLGGGGK
peptide 2: QEWAWVQCEVYGRGCPS
modifications: not fully specified (bridges); cysteine pairing not given here; also: K16 of chain 1 chemically linked to C-terminus of chain 2 (C-C on a lysine)
B20: S442 (peptide)
peptide 1: ESFYDWFERQLGGGGK
peptide 2: AWVQCEVYGRGCPS
modifications: not fully specified (bridges); cysteine pairing not given here; also: bond at chain A 16 to a chain's C-terminus
B21: S438 (peptide)
peptide 1: ESFYDWFERQLGGGGK
peptide 2: DQEWAWVQCEVYGRGCPS
modifications: not fully specified (bridges); cysteine pairing not given here; also: K16 of chain 1 chemically linked to C-terminus of chain 2 (C-C on a lysine)
B22: S456 (peptide)
peptide 1: XGSLDESFYDWFERQLGKK
peptide 2: XKEWLDQEWAWVQCEVYGRGCPSEE
modifications: not fully specified; N-terminal Ald
B23: S440 (peptide)
peptide 1: ESFYDWFERQLGGGGK
peptide 2: EWAWVQCEVYGRGCPS
modifications: not fully specified (bridges); cysteine pairing not given here; also: K16 of chain 1 chemically linked to C-terminus of chain 2 (C-C on a lysine)
B24: S441 (peptide)
peptide 1: ESFYDWFERQLGGGGK
peptide 2: WAWVQCEVYGRGCPS
modifications: not fully specified (bridges); cysteine pairing not given here; also: K16 of chain 1 chemically linked to C-terminus of chain 2 (C-C on a lysine)

These binders were tested against T1, human insulin receptor (HIR) (human, UniProt P06213 28-1382, limits assumed) (assay: 125I-insulin displacement, solubilised HIR).
T1 construct: Detergent-solubilised receptor; The natural receptor is an alpha2-beta2 heterotetramer cleaved from one precursor

Binder	Kd [nM]
B1	140
B2	65
RMYFSTGAPQNFYDWFVQEWD [S365]	10000
GSLDESFYDWFERQ [S394]	91
B3	98
B4	1600
KHLCVLEELFWGASLFGYCSGKK [S331]	1600
FYDWFERQLG [S392]	3800
B5	56
B6	470
B7	660
B8	160
GSLDESFYDWFERQLG (also called RP9 minus terminal lysines) [S386]	320
GSLDESFYDWFERQLGKK (also called RP9) [S371]	630
GIISQSCPESFYDWFAGQVSDPWWC[dW] (cysteine pairing not given here, also called G33; H2CA-4-G9-IGFR) [S326]	590
DLWFNAKEDMNFYDWFVWQLR [S342]	1800

Binder	Kd [nM]
LDESFYDWFERQLG [S388]	340
SGSLDESFYDWFERQLGKK [S372]	200
EWRD[Hyp]FYDWFDE[dI][Hyp][dE] (printed: EWRD-Hyp-FYDWFDEi-Hyp-e) [S322]	720
B9	2700
B10	700
B11	46
B12	110
B13	990
GSLDESFYDWFERQLGKKKS (not fully specified; printed as GSLDESFYDWFERQLGKKK(S)) [S373]	120
GSLDESFYDWFERQL [S395]	8100
SLDESFYDWFERQLG [S387]	630
B14	120
B15	180
B16	2200
B17	39
PLRESRNFYDWFVQQLE [S366]	370

What follows are binders tested against T2, Soluble IGF-1R (R&D Systems, Cat. # 391-GR/CF); recombinant human IGF-1R (human, UniProt P08069 31-935) (assay: phage ELISA vs milk).
T2 construct: extracellular domain; Eu3+-labelled in the TR-FRET assays; also called sIGF-1R; rhIGF-1R

Binder	Ratio over Background [fold]
YRGMLVLGRISGGAGKAASERPARIGQKVSAVNFYDWFV [A6L-0-H3-IR]	26
RGAVAGFHDQFYDWFDRQVSRVHKFG [H2CA-4-E9-IGFR]	5.6
CCTTEMVVMDARDDPFYHKLSELVTGG [B6Hα-1-B5-IR]	20.5

These binders were tested against human insulin receptor (HIR) (human, UniProt P06213 28-1382, limits assumed) (assay: 125I-insulin competition, solubilised HIR).

Binder	Kd [nM]
GSLDESFYDWFERQLGGGSGGSWLDQEWAWVQCEVYGRGCPS [S459]	0.076
GSLDESFYDWFERQLGGGSGGSWLDEEWAQVQCEVYGRGCPS [S543]	0.019
ESFYDWFERQL [S399]	95
B18	0.69
B19	46
LDQEWAWVQCEVYGRGCPSESFYDWFERQLG [S471]	0.67
ADQEWAWVQCEVYGRGCPSESFYDWFERQLG [S494]	17
B20	160
B21	30
WLDQEWAWVQCEVYGRGCPSGGSGGSGSLDESFYDWFERQLG [S457]	1.6
WLDQEWAWVQCEVYGRGCPSGGSGGSGSLDESFYDWFERQLG [S458]	3.2
B22	2.4
LDEWAWVQCVEYGRGCPSESFYDWFERQLG [S483]	52
B23	99
ESFYDWFERQ [S400]	630
B24	120

These binders were tested against T2, Soluble IGF-1R (R&D Systems, Cat. # …) (assay: phage ELISA, vs IR).

Binder	IGF-1R/IR Comparison [ratio]
YRGMLVLGRISGGAGKAASERPARIGQKVSAVNFYDWFV [A6L-0-H3-IR]	13
RGAVAGFHDQFYDWFDRQVSRVHKFG [H2CA-4-E9-IGFR]	3
CCTTEMVVMDARDDPFYHKLSELVTGG [B6Hα-1-B5-IR]	20.5
